Test results as given in patent publication US20240294650A1 (Alector, published 2024).

Key:
[1] = molecular target: T1, endogenous murine MerTK on bone marrow-derived macrophages (mouse, UniProt Q60805 19-994); test: FACS, mouse BMDM, WT minus MerTK KO
T1 construct: whole, on cells; MFI on MerTK KO BMDM subtracted; also called BMDM WT-KO
T1 sequence (looked up): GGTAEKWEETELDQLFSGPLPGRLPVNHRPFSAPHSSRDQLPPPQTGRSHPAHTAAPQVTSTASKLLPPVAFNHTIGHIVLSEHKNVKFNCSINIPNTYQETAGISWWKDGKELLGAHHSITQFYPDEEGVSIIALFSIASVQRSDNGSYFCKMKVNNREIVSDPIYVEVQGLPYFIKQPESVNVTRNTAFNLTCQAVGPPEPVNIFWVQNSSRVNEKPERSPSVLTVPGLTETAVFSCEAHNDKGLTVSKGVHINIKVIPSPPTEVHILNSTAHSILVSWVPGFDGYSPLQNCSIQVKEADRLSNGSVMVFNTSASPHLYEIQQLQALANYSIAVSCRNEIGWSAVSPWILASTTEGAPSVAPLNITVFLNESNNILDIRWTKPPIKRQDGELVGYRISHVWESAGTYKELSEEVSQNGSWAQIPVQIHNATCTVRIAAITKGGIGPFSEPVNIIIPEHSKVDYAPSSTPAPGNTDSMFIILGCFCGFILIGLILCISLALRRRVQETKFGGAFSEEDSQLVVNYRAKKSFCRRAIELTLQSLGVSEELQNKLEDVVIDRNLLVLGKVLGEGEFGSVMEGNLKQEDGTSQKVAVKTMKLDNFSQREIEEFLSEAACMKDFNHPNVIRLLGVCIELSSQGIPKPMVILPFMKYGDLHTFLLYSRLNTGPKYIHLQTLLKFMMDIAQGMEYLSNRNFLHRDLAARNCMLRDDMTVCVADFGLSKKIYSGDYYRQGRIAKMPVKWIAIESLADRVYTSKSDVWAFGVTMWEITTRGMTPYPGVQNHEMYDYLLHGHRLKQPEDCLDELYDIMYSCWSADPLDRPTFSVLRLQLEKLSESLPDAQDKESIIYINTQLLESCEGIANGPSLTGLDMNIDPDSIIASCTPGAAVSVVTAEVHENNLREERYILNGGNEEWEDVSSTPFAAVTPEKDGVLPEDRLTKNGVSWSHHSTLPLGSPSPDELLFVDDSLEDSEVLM
Outline: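 MFI from flow cytometry, reported as WT minus KO, after antibody (10 μg/ml, 60 min on ice) and PE goat anti-human IgG (30 min on ice, Fc block present). Macrophages came from WT and MerTK-knockout mouse marrow cultured seven days in 50 ng/ml M-CSF.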

[2] = molecular target: T2, mouse MerTK overexpressed on CHO cells (mouse, UniProt Q60805 19-994); test: FACS, CHO-muMerTK OE cells, 10 ug/ml
T2 construct: whole, on cells; also called CHO-muMerTK OE
T2 sequence (looked up): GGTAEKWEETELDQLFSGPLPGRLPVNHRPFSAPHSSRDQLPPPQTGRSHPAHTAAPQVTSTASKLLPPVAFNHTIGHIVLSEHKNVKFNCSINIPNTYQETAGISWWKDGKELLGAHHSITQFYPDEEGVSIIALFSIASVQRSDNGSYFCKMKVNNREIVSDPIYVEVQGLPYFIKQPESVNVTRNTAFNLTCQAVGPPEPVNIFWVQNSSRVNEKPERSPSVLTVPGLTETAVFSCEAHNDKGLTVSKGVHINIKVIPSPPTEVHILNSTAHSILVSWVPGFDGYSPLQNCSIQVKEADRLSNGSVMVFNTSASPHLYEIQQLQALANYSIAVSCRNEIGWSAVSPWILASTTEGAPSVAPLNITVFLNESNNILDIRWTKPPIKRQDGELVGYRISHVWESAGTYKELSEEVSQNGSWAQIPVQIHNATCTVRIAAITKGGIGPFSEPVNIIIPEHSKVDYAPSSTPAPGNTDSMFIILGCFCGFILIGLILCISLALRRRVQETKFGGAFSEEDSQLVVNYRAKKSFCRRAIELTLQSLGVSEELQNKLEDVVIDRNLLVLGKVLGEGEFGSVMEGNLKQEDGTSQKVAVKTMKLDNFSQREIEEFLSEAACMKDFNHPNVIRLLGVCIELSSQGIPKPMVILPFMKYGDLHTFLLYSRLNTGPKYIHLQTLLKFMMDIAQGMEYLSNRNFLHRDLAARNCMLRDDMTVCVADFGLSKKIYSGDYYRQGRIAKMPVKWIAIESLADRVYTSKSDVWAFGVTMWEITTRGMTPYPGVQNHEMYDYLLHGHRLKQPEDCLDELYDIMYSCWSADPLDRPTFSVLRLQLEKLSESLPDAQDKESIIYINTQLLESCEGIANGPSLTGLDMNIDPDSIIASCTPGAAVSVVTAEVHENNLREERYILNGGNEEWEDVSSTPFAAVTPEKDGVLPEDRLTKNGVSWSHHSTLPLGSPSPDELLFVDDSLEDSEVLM
Outline: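 Cells (100,000/well) incubated with antibodies on ice for 60 min, then detected with PE anti-human IgG plus Fc block on ice for 30 min. A375 and parental CHO cells served as negative controls. Read-out is flow cytometry MFI.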

[3] = molecular target: T3, Recombinant human MerTK-human Fc Chimera protein (human, UniProt Q12866 26-499, limits assumed); test: blocking ELISA, Gas6-His on MerTK-Fc, Ab 66.6 nM, isotype=100%
T3 construct: bought construct; also called MerTK-Fc (R&D systems, Cat #391-MR-100)
T3 sequence: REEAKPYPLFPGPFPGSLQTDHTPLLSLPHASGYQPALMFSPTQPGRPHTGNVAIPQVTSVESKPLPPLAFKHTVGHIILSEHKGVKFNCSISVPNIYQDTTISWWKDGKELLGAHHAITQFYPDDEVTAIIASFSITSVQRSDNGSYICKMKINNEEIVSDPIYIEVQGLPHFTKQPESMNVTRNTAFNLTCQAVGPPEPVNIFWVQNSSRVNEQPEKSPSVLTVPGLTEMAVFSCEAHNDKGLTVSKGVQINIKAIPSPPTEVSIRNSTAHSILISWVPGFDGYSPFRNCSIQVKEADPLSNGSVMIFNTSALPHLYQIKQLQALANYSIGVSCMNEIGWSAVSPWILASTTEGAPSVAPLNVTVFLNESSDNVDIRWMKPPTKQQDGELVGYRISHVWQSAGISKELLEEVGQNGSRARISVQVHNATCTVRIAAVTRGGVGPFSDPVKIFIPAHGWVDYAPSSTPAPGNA
Description: Briefly, rabbit anti-human IgG antibody (Jackson ImmunoResearch, Cat #309-005-008) was coated at 2 μg/ml onto high-protein binding plates at 4° C. overnight. After washing with 0.05% Tween20 in PBS three times, 5% BSA in PBS was added for 1 hour. Recombinant human MerTK-human Fe Chimera protein (R&D systems, Cat #391-MR-100) was added at 2 μg/ml for 1 hour and plates were washed before the addition of 40 μl of anti-MerTK hybridoma supernatants and 40 μl of His tag-conjugated recombinant Gas6 (R&D systems, Cat #885-GSB-050) at 3 μg/ml or His tag-conjugated recombinant ProS (R&D systems, Cat #9489-PS-100) at 20 μg/ml. After a further incubation for 1 hour, plates were washed and incubated for 1 hour with HRP-conjugated anti-6×His tagged antibody (Abcam, Cambridge, MA, Cat #ab1187). Plates were then washed and an HRP substrate, TMB, was added to develop the plates. The reaction was stopped by adding 50 μl 2N H₂SO₄ and the OD was measured using a spectrophotometer (BioTek).
Anti-MerTK antibodies were titrated to a final concentration from 66.6 nM to 4 pM and tested against anti-human MerTK antibody M6 (disclosed in WO2016/106221) or isotype control antibody.

| Binder | MFI [1] | MFI [2] | Percent Gas6 ligand binding [3] |
| --- | --- | --- | --- |
| MTK-207 (antibody, human IgG1, V domains shown) VH: QVQLKESGPGLVAPSQSLSITCTVSGISLTSYGVSWVRQPPGKGLEWLGIIWGDGSTNYHSALISRLSISKDNSKSQVFLKLNSLQTDDTATYYCAKGRYGNYEDWYFDVWGTGTTVTVSS VL: DIQMTQSPASLSASVGETVTITCRASGNIHNYLAWYQQKQGKSPQLLVYNAKTLAAGVPSRFSGSGSGTQYSLKINSLQPEDFGSYYCQHFWSIPLTFGAGTKLELK | 989 MFI | 279 MFI | 116% |
| MTK-202 (antibody, human IgG1, V domains shown) VH: EVQLVESGGGLVKPGGSLKLSCAASGFTFSDFGMHWVRQVPEKGLEWVAFISGGSNTIYYTDTVKGRFTISRDNAKNTLFLQMTSLRSEDTAMYYCVRNGNSFAYWGQGTLVTVSA VL: NIMMTQSPSSLAVSAGEKVTMNCKSSQSVLYSSNQKNYLAWYQQKPGQSPKLLIYWASTRESGVPDRFTGSGSGTDFTLTISNIQAEDLAIYYCHQYFFSWTFGGGTKLEIK | 4510 MFI | 4410 MFI | 101% |
| MTK-204 (antibody, human IgG1, V domains shown) VH: EVQLVESGGGLVKPGGSLKLSCAASGFTFSDYGMHWVRQAPEKGLEWVAYISSGTSTIYYEDTVKGRFTISRDNAKNTLFLQMTSLRSEDTAMYYCARGGLLFDYWGQGTTLTVSS VL: NIMMTQSPSSLAVSAGEKVTMSCKSSQSVLYSSNQKNYLAWYQQKPGQSPKLLIQWASTRESGVPDRFTGSGSETDFTLTIRSVQAEDLAVYYCHQYFSSWTFGGGTKLEIK | 602 MFI | 713 MFI | 121% |
| MTK-225 (antibody, human IgG1, V domains shown) VH: EVQLQQSGPELVKPGASVKIFCKASGYTFTAYNMDWVKQSHGKSLEWIGDINPNNGGTIYNQKFKGKATLTVDKSSSTAYMELRSLTSEDTAVYYCARRRRYGNTYYWYFDVWGTGTTVTVSS VL: DIQMTQSPASLSVSVGETVTITCRASENIYSSLAWYQQKQGKSPQLLVYAATNLADGVPSRFSGSGSGTQFYLKINGLQSEDFGSYYCQHFWGTSYTFGGGTKLEIK | 619 MFI | 285 MFI | 120% |
| MTK-231 (antibody, human IgG1, V domains shown) VH: DVQLQESGPGLVKPSQSLSLTCSVTGYSITSGYYWNWIRQFPGNKLEWMGYISYDGTYNYHPSLKNRISITRDTSKNQFFLTLNSVTTEDTATFYCTRGGGYWGQGTSVTVSS VL: DVVMTQTPLSLPVSLGDQASISCRSSQSLVHSDGNTYLHWYLQKPGQSPKLLIYKVSNRFSGVPDRFSGSGSGTDFTLKISRLEAEDLGIYFCSQTTHIPLTFGSGTKLEIK | 639 MFI | 594 MFI | 116% |
| MTK-212 (antibody, human IgG1, V domains shown) VH: QVQLQQSGPELVKPGASVKISCKASGYAFSSSWVNWVKQRPGKGLEWIGRIYPGDGDSNYNGNFKGKATLTADKSSNTAYLQLSSLTSEDSAVYFCARKSHFIYYTLDYWGQGTPVTVSS VL: DIVMTQSHKFKSTSVGDRVSIACKASQDVGTSVAWYQQKPGKSPKLLIYWASSRHTGVPDRFTGSGSGTDFTLTISNVQSEDLTDYFCQQYSTYPYTFGGGTKLEIK | 9090 MFI | 12800 MFI | 122% |
